In patent publication US20220226473A1, “Nucleic acid nanocarrier drug and preparation method thereof, pharmaceutical composition and application thereof” (BAI YAO ZHI DA (BEIJING) NANOBIO TECHNOLOGY CO., LTD., priority 2018, published 2022):
Oligonucleotides are written 5' to 3', each unit as a sugar letter and its base; * is a phosphorothioate linkage, no mark a phosphodiester; rarer units and linkages stand in square brackets, end groups in braces. Plain capitals give the bases only. d = 2'-deoxy (DNA)

B1: R-8: conventional-sequence RNA nanoparticle with extension fragments, strands SEQ ID NO: 76-78, C/U 2′F modified (nucleic acid)
chain 1: CGCGCGCCCAGGAGCGUUGGCGGGCGGCG
chain 2: CGCCGCCCGCCUUCGCCGCCAGCCGCC
chain 3: GGCGGCAGGCGGCCAUAGCCCUGGGCGCGCG
modifications: 2'-fluoro at CU, RNA at AG, backbone not given here; three-strand RNA nanoparticle used as drug carrier
B2: R-11: conventional-sequence RNA nanoparticle, strands SEQ ID NO: 85-87, C/U 2′F modified (nucleic acid)
chain 1: CGCGCGCCCAGGAGCGUUGGCCCGCGGCG
chain 2: CGCCGCGGGCCUUCGGGGCCAGCCGCC
chain 3: GGCGGCAGGCCCCCAUAGCCCUGGGCGCGCG
modifications: 2'-fluoro at CU, RNA at AG, backbone not given here; three-strand RNA nanoparticle used as drug carrier
B3: R-9: conventional-sequence RNA nanoparticle, strands SEQ ID NO: 79-81, C/U 2′F modified (nucleic acid)
chain 1: CGCGCGCCCAGCAGCGUUCGCGGGCGGCG
chain 2: CGCCGCCCGCGUUCGCCGCCAGCCGCC
chain 3: GGCGGCAGGCGGCCAUAGCGCUGGGCGCGCG
modifications: 2'-fluoro at CU, RNA at AG, backbone not given here; three-strand RNA nanoparticle used as drug carrier
B4: R-10: conventional-sequence RNA nanoparticle, strands SEQ ID NO: 82-84, C/U 2′F modified (nucleic acid)
chain 1: CGCGCGCCCACGAGCGUUGCGGGGCGGCG
chain 2: CGCCGCCCCGCUUCGCCGCCAGCCGCC
chain 3: GGCGGCAGGCGGCCAUAGCCGUGGGCGCGCG
modifications: 2'-fluoro at CU, RNA at AG, backbone not given here; three-strand RNA nanoparticle used as drug carrier
B5: R-14: conventional-sequence RNA nanoparticle carrying survivin siRNA, strands SEQ ID NO: 94-96, C/U 2′F modified (nucleic acid)
chain 1: CGCGCGCGAGCGUUGCAAUGACAGAUAAGGAACCUGCUTT
chain 2: GGCAGGUUCCUUAUCUGUCAAAGCUUCGGCGGCAGC
chain 3: GCAGCCGCCCAUAGCCGCGCGCG
modifications: chain 1: DNA at T, 2'-fluoro at CU, RNA at AG, backbone not given here; chain 2: 2'-fluoro at CU, RNA at AG, backbone not given here; chain 3: 2'-fluoro at CU, RNA at AG, backbone not given here; three-strand RNA nanoparticle carrying a survivin siRNA fragment
B6: R-12: conventional-sequence RNA nanoparticle, strands SEQ ID NO: 88-90, C/U 2′F modified (nucleic acid)
chain 1: CGCGCGCCCAGCAGCGUUCGCCCCGCCGC
chain 2: GCGGCGGGGCGUUCGGCGGCAGGCGGC
chain 3: GCCGCCAGCCGCCCAUAGCGCUGGGCGCGCG
modifications: 2'-fluoro at CU, RNA at AG, backbone not given here; three-strand RNA nanoparticle used as drug carrier
B7: D-2: conventional-sequence DNA nanoparticle with EGFRapt target head, strands SEQ ID NO: 102-104 (nucleic acid)
chain 1: dC*dG*dC*dGdCdGdCdCdCdAdGdCdAdGdCdGdTdTdCdGdCdGdGdGdCdGdGdCdGdGdCdCdTdTdAdGdTdAdAdCdGdTdGdCdTdTdTdGdAdTdGdTdCdGdAdTdTdCdGdAdCdAdGdGdA*dG*dG*dC
chain 2: dC*dG*dC*dCdGdCdCdCdGdCdGdTdTdCdGdCdCdGdCdCdAdGdCdC*dG*dC*dC
chain 3: dG*dG*dC*dGdGdCdAdGdGdCdGdGdCdCdAdTdAdGdCdGdCdTdGdGdGdCdGdC*dG*dC*dG
modifications: three-strand DNA nanoparticle with an EGFR aptamer part
B8: R-13: conventional-sequence RNA nanoparticle, strands SEQ ID NO: 91-93, C/U 2′F modified (nucleic acid)
chain 1: CGCGCGCCCAGCAGCGUUCGGGGCGCCGC
chain 2: GCGGCGCCCCGUUCGGCCGGCAGGCGGC
chain 3: GCCGCCAGCCGGCCCAUAGCGCUGGGCGCGCG
modifications: 2'-fluoro at CU, RNA at AG, backbone not given here; Strands self-assemble into an RNA nanoparticle carrier

Assay: Electric potential (zeta potential) measurement of self-assembly products
Format: physicochemical
Settings: result over 3 detections, sample in ultrapure water
Protocol: Measurement method: preparing a potential sample (the self-assembly product is dissolved in ultrapure water) and putting into a sample pool, opening a sample pool cover of an instrument, and placing the instrument;
opening software, clicking a menu MeasUre€ManUal, so a manual measurement parameter setting dialog box appears;
setting a software detection parameter;
and then clicking Ok to complete the settings, after a measurement dialog box appears, clicking start to start.
and then clicking Ok to complete the settings, after a measurement dialog box appears, clicking Start to start.
Measurement method: preparing a potential sample (the self-assembly product is dissolved in ultrapure water) and putting into a sample pool, opening a sample pool cover of an instrument, and placing the instrument:
Measurement result potential detection results of the 7 groups of the extension fragment deformation+core short-sequence RNA nanoparticles at 25 DEG C. are as follows:
setting a software detection parameter; and then
clicking Ok to complete the settings, after a measurement dialog box appears, clicking Start to start.
Measurement result potential detection results of the 7 groups of the extension fragment deformation+core short-sequence DNA nanoparticles at 25 DEG C. are as follows: […]

Molecule | Potential ZP, Experiment result
B1 | −17.43 mV (±1.33 mV)
B2 | −29.13 mV (±3.13 mV)
B3 | −18.20 mV (±1.3 mV)
B4 | −10.87 mV (±0.47 mV)
B5 | −23.53 mV. ± 2.33 mV
B6 | −10.86 mV (±3.27 mV)
B7 | −36.47 mV (±0.67 mV)
B8 | −15.45 mV (±5.81 mV)
